Experimental data as given in US20230175069A1 (published 2023).

Tests used:
[1] = target: T1, HER3 (Erb-B2 Receptor Tyrosine Kinase 3) (human, UniProt P21860 20-1342); assay: co-immunoprecipitation with anti-HER3 antibody from T47D cells expressing wtCCDC170, western blot with anti-CCDC170 antibody
T1 construct: Endogenous protein of T47D cells, in cell lysate; also called ErbB3

[2] = target: T2, HER2 (Erb-B2 Receptor Tyrosine Kinase 2) (human, UniProt P04626 23-1255); assay: co-immunoprecipitation with anti-HER2 antibody from T47D cells expressing wtCCDC170, western blot with anti-CCDC170 antibody
T2 construct: Endogenous protein of T47D cells, in cell lysate; also called HER2/neu

[3] = target: T3, SRC (SRC Proto-Oncogene, Non-Receptor Tyrosine Kinase) (human, UniProt P12931 2-536); assay: co-immunoprecipitation with anti-SRC antibody from T47D cells expressing wtCCDC170, western blot with anti-CCDC170 antibody
T3 construct: Endogenous protein of T47D cells, in cell lysate

Measured: binding result

T1 sequence (P21860 20-1342 limits assumed): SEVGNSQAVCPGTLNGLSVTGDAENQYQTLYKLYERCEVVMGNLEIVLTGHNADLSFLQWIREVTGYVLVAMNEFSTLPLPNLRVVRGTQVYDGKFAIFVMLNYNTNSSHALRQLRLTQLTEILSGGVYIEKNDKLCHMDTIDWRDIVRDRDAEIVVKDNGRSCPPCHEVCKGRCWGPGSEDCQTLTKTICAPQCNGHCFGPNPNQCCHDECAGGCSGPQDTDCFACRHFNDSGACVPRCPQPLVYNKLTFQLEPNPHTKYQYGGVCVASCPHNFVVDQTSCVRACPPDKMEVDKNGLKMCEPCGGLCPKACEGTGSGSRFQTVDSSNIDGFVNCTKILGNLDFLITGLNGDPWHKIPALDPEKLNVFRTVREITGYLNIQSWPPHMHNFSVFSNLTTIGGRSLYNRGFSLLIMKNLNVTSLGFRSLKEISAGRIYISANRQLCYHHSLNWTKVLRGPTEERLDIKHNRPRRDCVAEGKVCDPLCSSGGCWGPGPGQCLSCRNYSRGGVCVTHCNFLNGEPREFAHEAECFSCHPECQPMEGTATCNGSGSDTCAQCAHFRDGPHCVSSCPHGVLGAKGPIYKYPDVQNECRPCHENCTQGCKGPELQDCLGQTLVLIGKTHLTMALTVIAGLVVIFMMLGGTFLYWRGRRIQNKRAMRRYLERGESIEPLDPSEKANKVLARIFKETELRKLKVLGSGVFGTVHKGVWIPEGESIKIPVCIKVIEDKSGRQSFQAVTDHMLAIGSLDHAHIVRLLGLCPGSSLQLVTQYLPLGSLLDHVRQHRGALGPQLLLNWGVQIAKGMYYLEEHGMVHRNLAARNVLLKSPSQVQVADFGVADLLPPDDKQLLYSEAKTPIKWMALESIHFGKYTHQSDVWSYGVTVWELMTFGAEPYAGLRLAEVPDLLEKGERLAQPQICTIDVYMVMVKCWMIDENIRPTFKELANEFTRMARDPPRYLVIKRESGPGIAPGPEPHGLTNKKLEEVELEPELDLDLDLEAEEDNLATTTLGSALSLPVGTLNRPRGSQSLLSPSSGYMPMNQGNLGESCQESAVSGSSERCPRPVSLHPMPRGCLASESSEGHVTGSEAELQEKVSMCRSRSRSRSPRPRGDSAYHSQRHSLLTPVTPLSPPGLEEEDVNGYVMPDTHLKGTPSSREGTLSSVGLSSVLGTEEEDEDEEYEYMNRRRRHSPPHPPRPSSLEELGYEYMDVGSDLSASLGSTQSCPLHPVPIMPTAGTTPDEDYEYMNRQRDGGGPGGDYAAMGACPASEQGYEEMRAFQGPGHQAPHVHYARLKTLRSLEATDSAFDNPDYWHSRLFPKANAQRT

B1: wild type CCDC170 (Coiled-Coil Domain Containing 170) (other)
chain: MSLDCTSHIALGAASPAPEETYDHLSEVPVTREQLNHYRNVAQNARSELAATLVKFECAQSELQDLRSKMLSKEVSCQELKAEMESYKENNARKSSLLTSLRDRVQELEEESAALSTSKIRTEITAHAAIKENQELKKKVVELNEKLQKCSKENEENKKQVSKNCRKHEEFLTQLRDCLDPDERNDKASDEDLILKLRDLRKENEFVKGQIVILEETINVHEMEAKASRETIMRLASEVNREQKKAASCTEEKEKLNQDLLSAVEAKEALEREVKIFQERLLAGQQVWDASKQEVSLLKKSSSELEKSLKASQDAVTTSQSQYFSFREKIAALLRGRLSMTGSTEDTILEKIREMDSREESRDRMVSQLEAQISELVEQLGKESGFHQKALQRAQKAENMLETLQGQLTHLEAELVSGGVLRDNLNFEKQKYLKFLDQLSQKMKLDQMAAELGFDMRLDVVLARTEQLVRLESNAVIENKTIAHNLQRKLKTQKERLESKELHMSLLRQKIAQLEEEKQARTALVVERDNAHLTIRNLQKKVERLQKELNTCRDLHTELKAKLADTNELKIKTLEQTKAIEDLNKSRDQLEKMKEKAEKKLMSVKSELDTTEHEAKENKERARNMIEVVTSEMKTLKKSLEEAEKREKQLADFREVVSQMLGLNVTSLALPDYEIIKCLERLVHSHQHHFVTCACLKDVTTGQERHPQGHLQLLH
notes: Ectopically expressed in T47D cells and assayed in cell lysate; also called wtCCDC170; WT
no binding: all assays above
